Measured values from paper doi:10.1101/2022.03.13.484121.

Tests used:
[1] = molecular target: meprin α R372T, mature (activated) form (human (from the printed accession)) (UniProt Q16819); test: MALDI-TOF mass spectrometry
[2] = molecular target: pro-meprin α C308A (human (from the printed accession)) (UniProt Q16819); test: SEC-MALS

Substance	stoichiometry N [1]	stoichiometry N [2]
meprin α R372T, mature (activated) form (from UniProt Q16819 22-600) (enzyme)	2	
pro-meprin α C308A (from UniProt Q16819 22-600) (enzyme)		2
